Here are results for one protein from FireProtDB (doi:10.1021/acs.biochem.7b00833).

For this data set the following is noted: Bacillus subtilis (strain 168); pH 7; 25 °C; Urea; CD; Sodium Phosphate Buffer; whole UniProt chain shown.

B1: SCO1 protein homolog wild type, P54178 (protein)
chain: MKVIKGLTAGLIFLFLCACGGQQIKDPLNYEVEPFTFQNQDGKNVSLESLKGEVWLADFIFTNCETICPPMTAHMTDLQKKLKAENIDVRIISFSVDPENDKPKQLKKFAANYPLSFDNWDFLTGYSQSEIEEFALKSFKAIVKKPEGEDQVIHQSSFYLVGPDGKVLKDYNGVENTPYDDIISDVKSASTLK
Turning to B1, the denaturant m value was determined as 3.51 kcal/mol/M, the “denaturant midpoint (higher = more stable)” value came to 2.91 M and the unfolding free energy came to 9.93 kcal/mol.
